Measurements as given in patent publication US20050106581A1, “Modified phosphodiesterase polypeptides with altered physiochemical properties” (priority 2002, published 2005).

Key:
[1] = Qualitative investigation of aggregation by size exclusion chromatography (gel filtration); format: physicochemical; details: Superose 12, compared to the five isoforms of PDE4D (D3, D5-D8)
Procedure: The term “improved physicochemical properties” as used herein refers to a decrease in aggregate formation of polypeptides. For the purpose of definition, aggregate formation of the polypeptides of this invention is determined by quantitation of the fractions of a gelfiltration experiment in which aggregated PDE elutes, and of the fractions in which non-aggregated PDE elutes. The degree of aggregation is calculated in percent of non-aggregated PDE based on total (aggregated and non-aggregated) PDE. […] Chromatograms were recorded at 278 nm. […]
50 μl of Ni-NTA agarose purified isoform preparation was injected into a Superose 12 size exclusion column (type PC3.2/30; Amersham Pharmacia Biotech), equilibrated with 50 mM TrisHCl pH 7.7, 100 mM NaCl, 0.5 mM MgCl2 at a flow rate of 0.1 ml/min at 4° C. Chromatograms were recorded at 278 nm. […]

[2] = Quantification of aggregates and tubulin content (SDS-PAGE densitometry of SEC fractions); format: physicochemical; details: compared to isoforms D3 and D5 to D8
Text: In a preferred embodiment, the invention provides a polypeptide comprising a PDE polypeptide sequence, with an amino-terminal deletion wherein the proportion of non-aggregated PDE in the total protein preparation is from 55 %, preferably from 60%, more preferably from 65%, most perferably from 68% to 100%, preferably to 90%, more preferably to 80%, most preferably to 70% of total protein, as determined by the quantitation of eluted fractions from a gel filtration of the PDE fractions. Quantitation was performed as follows: Equal volume aliquots of fractions from Size Exclusion Chromatography, run as hereinbefore described, were analyzed by SDS-PAGE (one gel per run and isoform, FIG. 3). […]
To determine the decrease in tubulin association, the ratio of PDE molecules per tubulin molecules in the preparation of PDE polypeptide was calculated by quantitation of SDS-PAGE. […] The tubulin content of PDE preparations was determined as follows: Equal volume aliquots of fractions from SEC were analyzed by SDS-PAGE (one gel per run and isoform, FIG. 3). Optical densities of Coomassie stained PDE and tubulin bands were integrated as described hereinbefore for PDE aggregation quantitation. […]
Quantification of Aggregates and Tubulin Content
Equal volume aliquots of fractions from SEC were analyzed by SDS-PAGE (one gel per run and isoform, FIG. 3). […]

B1: DC: PDE4D polypeptide with amino-terminal deletion starting at the LF1 splice site, SEQ ID No. 2, 6xHis tagged (protein, listed as Homo sapiens)
chain: MFDVDNGTSAGRSPLDPMTSPGSGLILQANFVHSQRRESFLYRSDSDYDLSPKSMSRNSSIASDIHGDDLIVTPFAQVLASLRTVRNNFAALTNLQDRAPSKRSPMCNQPSINKATITEEAYQKLASETLEELDWCLDQLETLQTRHSVSEMASNKFKRMLNRELTHLSEMSRSGNQVSEFISNTFLDKQHEVEIPSPTQKEKEKKKRPMSQISGVKKLMHSSSLTNSSIPRFGVKTEQEDVLAKELEDVNKWGLHVFRIAELSGNRPLTVIMHTIFQERDLLKTFKIPVDTLITYLMTLEDHYHADVAYHNNIHAADVVQSTHVLLSTPALEAVFTDLEILAAIFASAIHDVDHPGVSNQFLINTNSELALMYNDSSVLENHHLAVGFKLLQEENCDIFQNLTKKQRQSLRKMVIDIVLATDMSKHMNLLADLKTMVETKKVTSSGVLLLDNYSDRIQVLQNMVHCADLSNPTKPLQLYRQWTDRIMEEFFRQGDRERERGMEISPMCDKHNASVEKSQVGFIDYIVHPLWETWADLVHPDAQDILDTLEDNREWYQSTIPQSPSPAPDDPEEGRQGQTEKFQFELTLEEDGESDTEKDSGSQVEEDTSCSDSKTLCTQDSESTEIPLDEQVEEEAVGEEEESQPEACVIDDRSPDTHHHHHH
modifications: 6xHis tag; PDE4D_core (1)..(664); LF1_splice_site (2)..(2); UCR1_site_-13 (22)..(22); UCR1_site (35)..(35); SER54 (39)..(39); SER579 (564)..(564)
Aggregate formation (gel filtration elution profile) [1]: decrease in aggregation | Percentage of non-aggregated PDE4D based on total PDE4D protein [2]: highest percentage of non-aggregated PDE4D | Tubulin content (ratio between PDE4D and tubulin, total mass basis) [2]: significantly lower
